According to the supplement of paper PMC10567573:

B1: VDR (parent)
chain: VTLELSQLSMLPHLADLVSYSIQK

Variants of: B1
Experiment: protein stability index of a GFP-peptide fusion (GPS, HEK-293T) (PSI 1-6); higher = more stable
Conditions: c terminus: a fixed tail appended
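Further: lentivirally expressed fusions sorted by FACS into six bins by GFP to DsRed ratio, PSI derived from sequencing read proportions per bin multiplied by bin number.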

Protein stability index, by site and new letter:
E4: I 3.27; K 3.75; Q 3.55; M 3.22; R 3.12; H 2.02; G 2.6; V 3.1; L 4.64; T 2.67; Y 2.58; P 3.67; N 2.66
L14: H 2.6; Q 2.22; S 1.66; K 2.31; V 3.03; R 1.86; A 2.18; T 2.12; D 2.49; E 2.88; C 2.09; G 1.71; I 3.33; W 2.95; N 1.61; Y 3.47; F 2.69; M 3.71; P 1.85
H13: E 3.51; M 4.11; T 2.23; Q 1.8; I 3.46; K 2.92; D 2.87; S 2.57; R 2.16; F 2.48; N 2.13; V 1.98; A 2.64; G 2.52; W 1.99; Y 2.58; P 2.69
V18: T 1.49; F 3.13; W 3.29; H 2.04; L 3.33; R 2.57; G 1.78; P 1.88; K 2.69; D 2.24; Q 2.76; Y 3.48; M 2.99; I 2.79; N 1.8; A 3.69; S 2.94; C 4.49; E 1.73
S6: E 2.77; A 2.88; D 2.16; V 3.64; M 2.06; P 2.29; N 2.58; W 2.88; K 1.81; Q 2.54; I 2.48; T 1.28; G 3.13; F 2.88; R 1.52; Y 2.27; H 3.94; L 3.3; C 2.65
Y20: Q 3.29; T 2.31; D 1.35; K 2.33; R 3.61; S 2.92; P 2.3; I 3.08; G 2.73; H 3.24; F 2.41; N 1.81; M 2.91; A 1.94; E 2.97; W 2.91; C 2.66; L 3.69
P12: T 3.29; K 2.72; F 1.44; G 2.02; C 3.89; R 3.79; Y 3.69; M 2.51; W 4.36; V 2.61; I 3.14; N 2.22; A 2.4; Q 3.63; D 3.28; S 2.38; L 3.04
L11: R 1.94; A 1.62; F 2.5; P 3.08; G 1.55; D 1.23; Y 3.22; Q 2.42; I 3.11; N 1.71; H 3.18; C 2.65; W 2.6; E 1.52; K 3.55; S 2.19; T 2.73; V 2.06; M 2.38
L17: D 1.7; K 1.68; R 1.62; N 1.77; W 3.14; V 1.66; P 2.77; H 1.98; G 1.33; E 1.87; S 1.6; Q 2.42; M 2.75; T 2.47; C 3.09; A 2.04
L5: S 1.92; G 2.07; Q 2.01; M 4.44; A 2.12; Y 3.55; D 2.1; P 1.86; C 2.54; N 1.93; I 3.82; T 2.04; H 2.33; R 2.5; E 1.71; K 1.85; V 2.65; W 2.81
M10: P 2.64; K 1.69; T 2.87; Y 2.33; H 2.76; F 1.99; C 3.52; G 2.09; A 2.73; W 3.71; S 1.96; N 2.14; R 3.32; E 1.87; I 2.35; D 1.71; Q 2.65; L 2.62
S21: H 2.5; R 2.13; Y 2.45; M 1.43; K 2.89; E 2.84; F 3.64; W 3.16; Q 1.43; N 3.47; D 3.11; P 1.05; G 2.48; V 3.87; I 1.89
Q7: S 2.99; P 2.45; K 2.59; N 2.84; E 3.06; M 3.99; D 2.45; C 2.21; W 2.56; Y 2.81; V 2.68; A 3.54; G 1.33; R 2.33; H 3.22; I 2.06; T 3.45; L 3.66
I22: E 1.92; W 1.98; R 2.12; F 2.12; G 2.47; M 3.49; K 1.72; P 1.55; S 1.79; Y 3.63; C 4.35; H 2.34; D 2.23; V 4.61; T 1.87; A 1.56; Q 2.74; N 2.32
S19: N 3.84; A 2.23; Y 2.42; I 2.76; P 2.63; H 2.79; G 4.13; C 2.33; M 3.08; W 3.07; L 4.2; T 3.23; E 2.05; F 3.49; K 1.68; V 4.3; D 2.27; R 3.25
A15: S 2.73; E 1.85; W 2.67; M 2.78; L 3.63; D 3.12; N 2.99; G 2.59; Y 4.33; P 2.1; V 3.02; R 2.64; F 2.81; I 3.26; Q 2.83; H 4.28; K 2.64; T 2.83
D16: Y 2.31; L 3.77; H 3; N 3.07; W 2.26; R 3.75; V 3.99; F 3.5; K 4.49; Q 3.98; P 3.09; T 2.91; G 1.67; A 3.1; S 2.82; M 3.71; E 4.21; C 3.86
Q23: C 2.33
L8: Q 1.54; D 2.91; A 2.74; E 1.65; R 2.25; H 2.92; V 3.88; P 2.33; K 3.33; Y 2.47; S 2.16; C 2.43; M 3.27; T 2.85; W 1.82; N 2.35; G 1.62
S9: M 3.43; I 3.23; G 3.56; C 2.37; Y 2.63; D 2.83; K 3.79; L 2.79; H 3.83; N 3.47; Q 2.24; F 2.67; V 2.74; R 3.06; E 3.48; A 2.74; W 3.43; P 1.97
